The source of these data is PMC5600424, “An efficient method for the preparation of preferentially heterodimerized recombinant S100A8/A9 coexpressed in Escherichia coli” (Biochemistry and Biophysics Reports, 2016).

What all share (assay): SEC; SEC-HPLC (COSMOSIL 5Diol-300-II), 50 mM sodium phosphate buffer pH 6.0, 1.0 mL/min, 30 ug of cation-exchange peak fraction injected; mass estimated with a gel filtration calibration kit
Series [1] deals with the molecule itself.
A further series deals with T1, human S100A9 (human, UniProt P06702 1-114).
T1 construct: human S100A9, UniProt P06702; codon-optimised synthetic gene in pET21a (NdeI/BamHI), expressed without any tags; also called MRP-14
T1 sequence (looked up): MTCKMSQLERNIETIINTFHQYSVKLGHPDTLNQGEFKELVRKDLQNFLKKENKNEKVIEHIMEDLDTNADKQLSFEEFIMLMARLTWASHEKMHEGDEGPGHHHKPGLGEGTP
The note with it: both partners purified.

Series [2] addresses T2, human S100A9 (human), P06702.
T2 chain: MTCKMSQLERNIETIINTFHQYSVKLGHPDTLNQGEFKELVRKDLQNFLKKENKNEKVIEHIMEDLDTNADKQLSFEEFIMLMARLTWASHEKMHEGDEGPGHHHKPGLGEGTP
The conditions noted are these: remark: other sources report otherwise.

As usually defined, the stoichiometry N is the number of molecules, sites or subunits per partner or assembly.

B1: human S100A8 (natural protein, UniProt P05109 1-93, looked up)
chain: MLTELEKALNSIIDVYHKYSLIKGNFHAVYRDDLKKLLETECPQYIRKKGADVWFKELDINTDGAVNFQEFLILVIKMGVAAHKKSHEESHKE
notes: human S100A8, UniProt P05109; codon-optimised synthetic gene in pET21a (NdeI/BamHI), expressed without any tags; also called MRP-8
B1: in series [1], the “stoichiometry N” value was 2. For the same molecule, the binding result with human S100A9 is given as “binds”.

B2: human S100A9, P06702 1-114 (natural protein)
chain: MTCKMSQLERNIETIINTFHQYSVKLGHPDTLNQGEFKELVRKDLQNFLKKENKNEKVIEHIMEDLDTNADKQLSFEEFIMLMARLTWASHEKMHEGDEGPGHHHKPGLGEGTP
On to B2, for which the stoichiometry N in series [2] was 2.

B3: S100A8/A9 heterodimer (complex, human)
chain 1: MLTELEKALNSIIDVYHKYSLIKGNFHAVYRDDLKKLLETECPQYIRKKGADVWFKELDINTDGAVNFQEFLILVIKMGVAAHKKSHEESHKE
chain 2: MTCKMSQLERNIETIINTFHQYSVKLGHPDTLNQGEFKELVRKDLQNFLKKENKNEKVIEHIMEDLDTNADKQLSFEEFIMLMARLTWASHEKMHEGDEGPGHHHKPGLGEGTP
notes: human S100A8, UniProt P05109; as the chain of m1; no tags; human S100A9, UniProt P06702; as the chain of m2; Heterodimer formed during coexpression; used here only for its own association to a higher complex; also called MRP-8/14; calprotectin; source: E. coli T7 Express, coexpressed from pET21-S100A8-S100A9, purified (cation-exchange chromatography, Peak 1)
In the case of B3, in series [1], the binding result is recorded as “binds”.
